According to patent US20080182978A1, “ANTI-NGF ANTIBODIES AND METHODS USING SAME” (RINAT NEUROSCIENCE CORP, priority 2002, published 2008):
Where a chain is given by its changes, count along the chain named. In names and notes the source's numbering stands.

T1: NT3 (Homo sapiens, UniProt P20783)
T1 sequence (P20783 139-257): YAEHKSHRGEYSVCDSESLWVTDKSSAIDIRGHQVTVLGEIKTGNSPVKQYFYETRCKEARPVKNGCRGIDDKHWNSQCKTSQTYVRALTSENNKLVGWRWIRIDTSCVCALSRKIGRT

T2: BDNF (Homo sapiens, UniProt P23560)
T2 sequence (P23560 129-247): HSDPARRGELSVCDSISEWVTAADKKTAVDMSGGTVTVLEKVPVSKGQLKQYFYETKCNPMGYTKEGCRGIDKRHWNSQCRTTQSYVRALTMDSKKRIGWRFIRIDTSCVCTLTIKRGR

T3: NT4/5 (Homo sapiens, UniProt P34130)
T3 sequence (P34130 81-210): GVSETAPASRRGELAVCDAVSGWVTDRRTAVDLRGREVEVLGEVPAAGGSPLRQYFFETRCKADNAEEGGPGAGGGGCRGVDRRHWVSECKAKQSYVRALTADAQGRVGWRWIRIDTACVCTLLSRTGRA

B1: E3 (Fab): Fab fragment of humanized anti-NGF antibody E3 (antibody, V domains shown)
VH: QVQLQESGPGLVKPSETLSLTCTVSGFSLIGYDLNWIRQPPGKGLEWIGIIWGDGTTDYNSAVKSRVTISKDTSKNQFSLKLSSVTAADTAVYYCARGGYWYATSYYFDYWGQGTLVTVS
VL: DIQMTQSPSSLSASVGDRVTITCRASQSISNNLNWYQQKPGKAPKLLIYYTSRFHSGVPSRFSGSGSGTDFTFTISSLQPEDIATYYCQQEHTLPYTFGQGTKLEIKRT
B2: 3C: H19-L129 with CDR-L3 S91E, K92R and CDR-H3 Y101W, G103A (antibody, V domains shown)
VH: B1 VH
VL: B1 VL with H92R

Columns and labels:
human NGF [1] = target: T4, human NGF (Homo sapiens, UniProt P01138); experiment: BIAcore affinity determination assay (kon, koff, KD of purified Fabs); format: binding; settings: Fab on immobilized human NGF
Protocol: Affinities of anti-NGF Fabs and monoclonal antibodies were determined using the BIAcore300™ surface plasmon resonance (SPR) system (BIAcore, INC, Piscaway N.J.). CM5 chips were activated with N-ethyl-N′-(3-dimethylaminopropyl)-carbodimide hydrochloride (EDC) and N-hydroxysuccinimide (NHS) according to the supplier's instructions. Human NGF was diluted into 10 mM sodium acetate pH 4.0 and injected over the activated chip at a concentration of 0.005 mg/mL. Using variable flow time across the individual chip channels, two ranges of antigen density were achieved: 100-200 response units (RU) for detailed kinetic studies and 500-600 RU for screening assays. The chip was blocked with ethanolamine. […] HBS-EP buffer (0.01M HEPES, pH 7.4, 0.15 NaCl, 3 mM EDTA, 0.005% Surfactant […]) was used as running buffer for all the BIAcore assays.
Serial dilutions (0.1-10× estimated KD) of purified Fab samples were injected for 1 min at 100 μL/min and dissociation times of up to 2 h were allowed. The concentrations of the Fab proteins were determined by ELISA and/or SDS-PAGE electrophoresis using as a standard a Fab of known concentration (as determined by amino acid analysis). Kinetic association rates (kon) and dissociation rates (koff) were obtained simultaneously by fitting the data to a 1:1 Langmuir binding model (Karlsson, R. Roos, H. Fagerstam, L. Petersson, B. (1994). Methods Enzymology 6. 99-110) using the BIAevaluation program. Equilibrium dissociation constant (KD) values were calculated as koff/kon.
The binding affinities to human NGF of Fabs E3 and 3C were measured using BIAcore analysis according to the manufacturer's instructions and as described above, except that 100 RU NGF was used on chip to prevent a rebinding effect. Briefly, several concentrations of antibodies (Fabs) were injected for 2 minutes onto a CM5 chip with 100 RU of immobilized human NGF on it, and permitted to dissociate for 1800 seconds. Mouse antibody 911 (Fab) was analyzed as a control. Data was analyzed using BIAevaluation software following the manufacturer's instructions. E3 bound human NGF with a KD of approximately 0.07 nM (and with a kon of about 6.0e5 M-1s-1, and a koff of about 4.2e-5s-1).

[2] = target: interaction of human NGF with trkA (Homo sapiens, UniProt P01138); experiment: BIAcore: blocking of NGF binding to trkA on chip; settings: 2.5 nM human NGF preincubated one hour; Fab concentration equal to NGF concentration
Protocol: (§1) Antibody E3 (interchangeably termed 3E) was selected for further analysis based on the high binding affinity. To test the ability of E3 to prevent the interaction of NGF with the NGF receptors trkA and p75, 2.5 nM of human NGF was premixed and incubated for one hour with 0 to 50 nM of antibody E3 (Fab). After the incubation, samples were injected at 10 ul/minute on a BIAcore CM5 chip containing 260 RU of p75 (channel 2) and 600 RU of trkA (channel 3), and percent binding was determined.

[3] = target: interaction of human NGF with p75 (Homo sapiens, UniProt P01138); experiment: BIAcore: blocking of NGF binding to p75 on chip; settings: 2.5 nM human NGF preincubated one hour; Fab concentration equal to NGF concentration
Protocol: as §1

human NGF [4] = target: T4, human NGF; experiment: Mouse E17/18 trigeminal neuron survival assay, NGF; format: cell-based; settings: saturating NGF (400 pM); 48 hours
Protocol: (§2) The ability of antibody E3 to specifically block NGF activity was evaluated by measurement of the capacity of the antibody to inhibit survival of mouse E17/18 trigeminal neurons in vitro in the presence of saturating concentrations of NGF, the NGF-related neurotrophin NT3, or the NGF-unrelated neurotrophic factor, macrophage stimulating protein (MSP). The survival of mouse E17/18 trigeminal neurons is a sensitive assay to evaluate the NGF-blocking activity of anti-NGF antagonist antibodies because NGF is required to support survival of these neurons at higher concentrations than the level of NGF required to support survival of E13.5 TG neurons).
(§3) The survival assay was conducted as follows: time mated pregnant Swiss Webster female mice were euthanised by CO2 inhalation. The uterine horns were removed and the embryos (at embryonic day 17 or 18) were extracted and decapitated. The trigeminal and nodose ganglia were dissected and cleaned. The ganglia were then trypsinised, mechanically dissociated and plated at a density of 100-300 cells per well in defined, serum-free medium in 4-well plates (Greiner) coated with poly-L-ornithine and laminin.
(§4) E17/18 trigeminal neurons were grown either without added neurotrophic factors (negative control) or in the presence of saturating concentrations of human NGF (400 pM and 15 pM) (positive control); NT3 (400 pM); or MSP (600 pM). […]

NT3 = target: T1, NT3; experiment: Mouse E17/18 trigeminal neuron survival assay, NT3; format: cell-based; settings: saturating NT3; antibody up to 200 nM; 48 hours
Protocol: as §2, §3, §4

[5] = target: macrophage stimulating protein (MSP) (Homo sapiens, UniProt P26927); experiment: Mouse E17/18 trigeminal neuron survival assay, MSP; format: cell-based; settings: MSP 600 pM; antibody up to 200 nM; 48 hours
Protocol: as §2, §3, §4

BDNF = target: T2, BDNF; experiment: Mouse E17 nodose neuron survival assay, BDNF; format: cell-based; settings: BDNF 400 pM; antibody up to 200 nM; 48 hours
Protocol: (§5) The ability of antibody E3 to specifically block NGF activity was also evaluated by measurement of the capacity of the antibody to inhibit survival of mouse nodose E17 neurons in the presence of saturating concentrations of BDNF or NT4/5. Survival of nodose neurons is supported by BDNF or NT4/5; therefore, survival of these neurons is a sensitive assay to evaluate the BDNF or NT4/5-blocking ability of the anti-NGF antagonist antibody.
as §3
(§6) E17 nodose neurons were grown either in the absence of added neurotrophic factors (negative control), or with saturating concentrations of BDNF (400 pM) (positive control) or NT4/5 (400 pM) or NGF unrelated growth factor […]. High concentrations of neurotrophins were used, as the goal of this experiment was to test specificity of the antibodies. […]

NT4/5 = target: T3, NT4/5; experiment: Mouse E17 nodose neuron survival assay, NT4/5; format: cell-based; settings: NT4/5 400 pM; antibody up to 200 nM; 48 hours
Protocol: as §5, §3, §6

LIF = LIF (Homo sapiens, UniProt P15018); experiment: Mouse E17 nodose neuron survival assay, LIF; format: cell-based; settings: LIF 2.5 nM; antibody up to 200 nM; 48 hours
Protocol: as §5, §3, §6

human NGF [6] = target: T4, human NGF; experiment: BIAcore screening assay of Fab library clones (koff); format: binding; settings: Table 8: CDR L3 H3 combination mutations, H19-L129 template (H1H2L1L2 matured)
Procedure, shortened: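 Fab library clones expressed in E. coli (1 mM IPTG, 5 h, 30° C), lysed by freeze-thaw in HBS-EP; lysates injected at 50 μl/min for 2 min over CM5-immobilised human NGF (500-600 RU). Single-exponential koff fitted from 10-15 min dissociation; Fab presence checked via anti-penta-His channel.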

human NGF [7] = target: T4, human NGF; experiment: Mouse E13.5 trigeminal neuron survival assay, human NGF; format: cell-based; settings: 1.5 or 15 pM human NGF
Protocol: (§7) The ability of Fab E3 or full antibody E3 to block NGF activity was evaluated by measurement of the capacity of the antibody to inhibit NGF-dependent survival of mouse E13.5 trigeminal neurons in vitro. The trigeminal ganglion is comprised of cutaneous sensory neurons that innervate the facial region. The survival of mouse E13.5 trigeminal neurons is a sensitive assay to evaluate the NGF-blocking activity of anti-NGF antagonist antibodies because NGF is required to support survival of these neurons. For example, at saturating concentrations of NGF, the survival is close to 100% by 48 hours in culture. By contrast, less than 5% of the neurons survive by 48 hours in absence of NGF.
(§8) The survival assay was conducted as follows: time-mated pregnant Swiss Webster female mice were euthanized by CO2 inhalation. The uterine horns were removed and the embryos at embryonic stage E13.5 were extracted and decapitated. The trigeminal ganglia were dissected using electrolytically sharpened tungsten needles. The ganglia were then trypsinized, mechanically dissociated and plated at a density of 200-300 cells per well in defined, serum-free medium in 96-well plates coated with poly-L-ornithine and laminin.
After 48 hours in culture, the cells were subjected to an automated immunocytochemistry protocol performed on a Biomek FX liquid handling workstation (Beckman Coulter) as follows: fixation using 4% formaldehyde, 5% sucrose, and PBS; permeabilization using 0.3% Triton X-100 in PBS); blocking of unspecific binding sites using 5% normal goat serum, 0.11% BSA in PBS; and sequential incubation with a primary and secondary antibodies to detect neurons. The primary antibody was rabbit polyclonal antibody against the protein gene product […] (PGP9.5, Chemicon), an established neuronal phenotypic marker. The secondary antibody was Alexa Fluor 488 goat anti-rabbit (Molecular Probes), together with the nuclear dye Hoechst 33342 (Molecular Probes) to label the nuclei of all the cells present in the culture. […]

rat NGF = rat NGF (Rattus norvegicus, UniProt P25427); experiment: Mouse E13.5 trigeminal neuron survival assay, rat NGF; format: cell-based; settings: 1.5 or 15 pM rat NGF
Protocol: as §7
as §8, with “laminin. […]” for “laminin.”

T4 sequence (P01138 122-241): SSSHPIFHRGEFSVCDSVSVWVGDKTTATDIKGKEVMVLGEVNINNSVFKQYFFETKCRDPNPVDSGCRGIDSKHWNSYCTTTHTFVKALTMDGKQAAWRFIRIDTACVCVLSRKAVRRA
Sequence of LIF (P15018 23-202, species assumed): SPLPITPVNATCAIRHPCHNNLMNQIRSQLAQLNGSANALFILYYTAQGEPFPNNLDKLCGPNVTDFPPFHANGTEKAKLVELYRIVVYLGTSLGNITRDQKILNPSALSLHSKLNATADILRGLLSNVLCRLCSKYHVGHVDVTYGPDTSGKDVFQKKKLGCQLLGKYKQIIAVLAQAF
Sequence of rat NGF (P25427 122-241): as the sequence (P01138 122-241) above, with S3T, I6V, R9M, M37T, D60A, D65E, M92T, G94D, V117A, A120G counted along it
Sequence of interaction of human NGF with trkA (P01138 122-241): as the sequence (P01138 122-241) above
Sequence of interaction of human NGF with p75 (P01138 122-241): as above
Sequence of macrophage stimulating protein (MSP) (P26927 19-711, species assumed): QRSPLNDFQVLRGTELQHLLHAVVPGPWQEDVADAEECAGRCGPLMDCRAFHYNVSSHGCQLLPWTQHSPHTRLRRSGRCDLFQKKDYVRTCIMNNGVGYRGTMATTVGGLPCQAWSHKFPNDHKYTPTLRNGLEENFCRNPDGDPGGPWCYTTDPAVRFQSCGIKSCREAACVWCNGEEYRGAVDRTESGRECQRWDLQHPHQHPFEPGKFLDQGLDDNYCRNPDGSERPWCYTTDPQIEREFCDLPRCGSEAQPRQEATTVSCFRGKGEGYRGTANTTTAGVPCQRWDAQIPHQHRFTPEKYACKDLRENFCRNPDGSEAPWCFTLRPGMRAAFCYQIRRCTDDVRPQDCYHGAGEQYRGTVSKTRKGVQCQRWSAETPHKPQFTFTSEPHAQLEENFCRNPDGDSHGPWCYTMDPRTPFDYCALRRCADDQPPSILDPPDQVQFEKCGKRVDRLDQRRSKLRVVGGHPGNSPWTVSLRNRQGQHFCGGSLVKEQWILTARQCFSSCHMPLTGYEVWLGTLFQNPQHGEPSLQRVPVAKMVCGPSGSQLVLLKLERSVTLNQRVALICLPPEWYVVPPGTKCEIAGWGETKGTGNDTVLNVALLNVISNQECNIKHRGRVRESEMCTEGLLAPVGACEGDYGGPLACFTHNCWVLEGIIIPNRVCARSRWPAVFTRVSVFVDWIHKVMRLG

Molecule | koff (human NGF [1]) | kon (human NGF [1]) [M⁻¹ s⁻¹] | NGF binding to trkA (percent maximum RU) [2] | NGF binding to p75 (percent maximum RU) [3] | survival of E17/18 trigeminal neurons promoted by NGF (human NGF [4]) | survival of E17/18 trigeminal neurons promoted by NT3 (NT3) | survival of E17/18 trigeminal neurons promoted by MSP [5] | survival of E17 nodose neurons promoted by BDNF (BDNF) | survival of E17 nodose neurons promoted by NT4/5 (NT4/5) | survival of E17 nodose neurons promoted by LIF (LIF) | koff (human NGF [6]) [s⁻¹] | blocking of human NGF-dependent trigeminal neuron survival (human NGF [7]) | blocking of rat NGF-dependent trigeminal neuron survival (rat NGF)
B1 | <4e-05 s⁻¹ | 600000 | no NGF binding was observed | no NGF binding was observed | totally blocked | did not inhibit | did not inhibit | did not inhibit | did not inhibit | did not inhibit |  |  | 
B2 | about 1.4E-5 s^−1 |  |  |  |  |  |  |  |  |  | 1.4e-05 | strongly blocked | strongly blocked
